# Where no end group is shown, it is not given here. The star is where a group is joined. Biotin = O=C1N[C@H]2[C@H](CS[C@H]2CCCCC(=O)*)N1
# B1: biotinylated CXCL9(74-103) (peptide)
# peptide: Biotin-KKKQKNGKKHQKKKVLKVRKSQRSRQKKTT
# notes: Site-specifically biotinylated at the NH2-terminus with biotin-p-nitrophenyl ester; source: synthetic peptide (Fmoc solid-phase synthesis)
# Molecular target: T1, human recombinant FGF-2 (human, UniProt P09038 143-288)
# T1 construct: basic fibroblast growth factor (FGF-2), human recombinant; also called basic fibroblast growth factor; source: bought: R&D Systems
# Test: grating-coupled interferometry; Creoptix WAVEdelta, 4PCP-STA chip; biotinylated CXCL9(74-103) captured on streptavidin; FGF-2 as analyte 4.53 nM-1.10 µM in duplicate; 25 °C; PBS with 30 mM NaCl, 15 mM L-arginine, 0.015% Tween 20, 0.05 mg/mL BSA, pH 7.4; 1:1 binding model with bulk correction
# Conditions: both partners purified
# T1 sequence (P09038 143-288): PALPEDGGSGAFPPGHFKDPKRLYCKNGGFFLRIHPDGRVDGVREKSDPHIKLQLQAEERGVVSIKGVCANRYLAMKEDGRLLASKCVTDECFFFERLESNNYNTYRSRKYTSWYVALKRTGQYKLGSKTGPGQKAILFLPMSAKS
binder,measurement,value
B1,Kd,100 nM
